In patent US20190023766A1 (published 2019):

T1: IL-15Rβγc receptors on 32Dβ cells (hIL-15Rβ and murine γC chains) (human; mouse, UniProt P14784 27-551; P34902 23-369)
T1 sequence (looked up) 1: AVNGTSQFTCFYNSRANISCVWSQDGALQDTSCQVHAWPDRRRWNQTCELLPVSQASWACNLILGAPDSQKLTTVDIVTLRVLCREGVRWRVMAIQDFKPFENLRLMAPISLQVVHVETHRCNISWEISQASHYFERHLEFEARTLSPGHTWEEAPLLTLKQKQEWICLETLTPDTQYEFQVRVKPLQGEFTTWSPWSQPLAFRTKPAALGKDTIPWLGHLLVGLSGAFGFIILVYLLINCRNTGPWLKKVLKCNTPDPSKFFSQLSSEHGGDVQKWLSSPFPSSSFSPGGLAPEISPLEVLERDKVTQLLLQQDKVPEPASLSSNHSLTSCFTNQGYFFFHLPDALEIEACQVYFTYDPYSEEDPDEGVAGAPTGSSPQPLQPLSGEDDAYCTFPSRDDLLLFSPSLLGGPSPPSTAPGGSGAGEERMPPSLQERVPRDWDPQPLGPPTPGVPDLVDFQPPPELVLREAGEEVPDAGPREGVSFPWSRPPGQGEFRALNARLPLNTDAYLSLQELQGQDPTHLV
T1 sequence (looked up) 2: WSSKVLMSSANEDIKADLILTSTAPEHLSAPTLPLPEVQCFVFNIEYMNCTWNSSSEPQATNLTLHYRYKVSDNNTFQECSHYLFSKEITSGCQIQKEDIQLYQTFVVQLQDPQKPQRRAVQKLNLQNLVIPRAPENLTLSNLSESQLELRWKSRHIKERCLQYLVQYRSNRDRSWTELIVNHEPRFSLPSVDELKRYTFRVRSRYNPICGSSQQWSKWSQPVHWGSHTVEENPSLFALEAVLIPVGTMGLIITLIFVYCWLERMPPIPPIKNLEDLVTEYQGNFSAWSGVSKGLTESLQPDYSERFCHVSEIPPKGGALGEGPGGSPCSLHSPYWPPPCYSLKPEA

B1: in vitro assembled IL-15N72D:IL-15RαSu/Fc complex (IL-15N72D:IL-15RαSu/Fc IVA) (Fc fusion)
chain 1: PEAAGG
chain 2: PELLGG
B2: IL-15N72D:IL-15RαSu/Fc complex (Alt-803), co-expressed and purified (Fc fusion)
chain 1: PEAAGG
chain 2: PELLGG

Key:
[1] = target: OVA (aa257-264) peptide/H-2Kb complex, soluble (HRP tetramer or biotinylated complex on a streptavidin chip) (mouse) (UniProt P01901); experiment: SPR (BIAcore 2000), biotinylated pMHCI on streptavidin chip, apparent KD
[2] = target: IL-15Rβγc receptors on 32Dβ cells (hIL-15Rβ and murine γC chains) (human; mouse) (UniProt P14784); experiment: cell-based or functional assay
[3] = target: OVA (aa257-264) peptide/H-2Kb complex, soluble (HRP tetramer or biotinylated complex on a streptavidin chip) (mouse) (UniProt P01901); experiment: SPR (BIAcore 2000), biotinylated pMHCI on streptavidin chip
[4] = target: T1, IL-15Rβγc receptors on 32Dβ cells …; experiment: cell-based or functional assay

Chain of OVA (aa257-264) peptide/H-2Kb complex, soluble (HRP tetramer or biotinylated complex on a streptavidin chip) (mouse) (P01901 22-305, one chain of several): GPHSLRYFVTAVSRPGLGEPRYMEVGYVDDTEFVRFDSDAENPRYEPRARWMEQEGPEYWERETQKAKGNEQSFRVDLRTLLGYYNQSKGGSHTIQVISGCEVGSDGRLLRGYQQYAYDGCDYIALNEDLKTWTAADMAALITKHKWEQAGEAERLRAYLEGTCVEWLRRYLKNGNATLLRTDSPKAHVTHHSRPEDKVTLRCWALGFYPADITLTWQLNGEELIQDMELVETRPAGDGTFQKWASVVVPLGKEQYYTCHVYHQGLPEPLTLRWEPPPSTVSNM

Row | Molecule | EC50, 32Dβ cell proliferation [2] [nM] | EC50, 32Dβ cell proliferation [4] [nM] | also measured
1 | OT1scTCR dimer (OT1scTCR/hIL-15:OT1scTCR/hIL-15RαSu/birA complex) (from UniProt P40933 49-162) |  |  | Kd [1]: 30000 nM
2 | c264scTCR dimer (c264scTCR/hIL-15:c264scTCR/hIL-15RαSu/birA complex) (from UniProt P40933 49-162) | 0.3 |  | 
3 | OT1scTCR/scCD8 heterodimer (OT1scTCR/hIL-15:scCD8/hIL-15RαSu/birA complex) (from UniProt P40933 49-162; P01731 28-196; P10300 22-175) |  |  | Kd [3]: 2600 nM
4 | c264scTCR/hIL-15 fusion protein (from UniProt P40933 49-162) | 0.3 |  | 
5 | B1 |  | 0.0158 | 
6 | B2 |  | 0.0156 | 
